The values below come from publication PMC12122975, “Structures of the Escherichia coli type 1 pilus during pilus rod assembly and after assembly termination” (Nature Communications, 2025).

The labels stand for the following.
B2: FimCHis, His-tagged type 1 pilus assembly chaperone FimC (natural protein)
chain: GVALGATRVIYPAGQKQEQLAVTNNDENSTYLIQSWVENADGVKDGRFIVTPPLFAMKGKKENTLRILDATNNQLPQDRESLFWMNVKAIPSMDKSKLTENTLQLAIISRIKLYYRPAKLALPPDQAAEKLRFRRSANSLTLINPTPYYLTVTELNAGTRVLENALVPPMGESTVKLPSDAGSNITYRTINDYGALTPKMTGVME
notes: source: E. coli BL21(DE3) (pFimCHis-cyt), purified (HisTrap, Source 30S); also co-expressed with FimD and FimH in E. coli Tuner (pETS1001) and purified as FimDCH
B3: FimC, type 1 pilus assembly chaperone (untagged) (natural protein)
chain: GVALGATRVIYPAGQKQEQLAVTNNDENSTYLIQSWVENADGVKDGRFIVTPPLFAMKGKKENTLRILDATNNQLPQDRESLFWMNVKAIPSMDKSKLTENTLQLAIISRIKLYYRPAKLALPPDQAAEKLRFRRSANSLTLINPTPYYLTVTELNAGTRVLENALVPPMGESTVKLPSDAGSNITYRTINDYGALTPKMTGVME
notes: source: E. coli BL21(DE3) (pFimC-cyt), purified (Q Sepharose, Source 30S, Phenyl Sepharose); also co-expressed with FimF or FimG in E. coli HM125 and purified from periplasmic extract as FimFC or FimGC
B4: FimI, assembly terminator subunit of the type 1 pilus (natural protein)
chain: GNKWNTTLPGGNMQFQGVIIAETCRIEAGDKQMTVNMGQISSNRFHAVGEDSAPVPFVIHLRECSTVVSERVGVAFHGVADGKNPDVLSVGEGPGIATNIGVALFDDEGNLVPINRPPANWKRLYSGSTSLHFIAKYRATGRRVTGGIANAQAWFSLTYQ

What all share (assay): cryo-EM structure
Data set [1] concerns the target T1, FimD, type 1 pilus assembly platform (usher) (E. coli, UniProt P30130 46-878).
T1 sequence: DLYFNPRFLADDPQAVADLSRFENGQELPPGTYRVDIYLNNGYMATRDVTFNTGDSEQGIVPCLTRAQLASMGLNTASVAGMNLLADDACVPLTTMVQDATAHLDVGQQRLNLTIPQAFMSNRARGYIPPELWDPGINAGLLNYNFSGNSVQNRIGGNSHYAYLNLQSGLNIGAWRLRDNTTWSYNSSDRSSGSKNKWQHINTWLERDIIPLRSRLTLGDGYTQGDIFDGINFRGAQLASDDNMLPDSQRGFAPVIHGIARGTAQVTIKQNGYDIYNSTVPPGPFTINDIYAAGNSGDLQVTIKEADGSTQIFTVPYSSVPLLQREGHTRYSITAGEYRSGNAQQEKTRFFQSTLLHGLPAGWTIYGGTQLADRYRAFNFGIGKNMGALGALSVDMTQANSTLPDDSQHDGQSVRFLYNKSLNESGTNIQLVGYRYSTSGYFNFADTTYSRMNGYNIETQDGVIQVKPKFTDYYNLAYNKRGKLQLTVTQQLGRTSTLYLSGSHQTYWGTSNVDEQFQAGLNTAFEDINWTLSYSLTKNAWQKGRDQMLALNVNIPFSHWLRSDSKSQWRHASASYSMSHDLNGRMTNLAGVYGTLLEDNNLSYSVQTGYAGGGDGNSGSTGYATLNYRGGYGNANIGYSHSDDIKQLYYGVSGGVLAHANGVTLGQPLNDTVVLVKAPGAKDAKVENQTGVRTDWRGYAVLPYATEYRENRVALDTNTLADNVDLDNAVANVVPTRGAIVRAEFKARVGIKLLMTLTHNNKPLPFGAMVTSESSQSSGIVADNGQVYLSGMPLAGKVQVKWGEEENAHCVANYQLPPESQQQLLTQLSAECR
Particulars: both partners purified.

The target in data set [2] is B3. Particulars: both partners purified.
Data set [3] has as its target B2. Particulars: both partners purified.
The target of data set [4] is B4. Conditions: both partners purified.
Data set [5] deals with the molecule itself.

B1: FimA, main subunit of the type 1 pilus rod (natural protein)
chain: AATTVNGGTVHFKGEVVNAACAVDAGSVDQTVQLGQVRTASLAQEGATSSAVGFNIQLNDCDTNVASKAAVAFLGTAIDAGHTNVLALQSSAAGSATNVGVQILDRTGAALTLDGATFSSETTLNNGTNTIPFQARYFATGAATPGAANADATFKVQYQ
notes: also called FimAn; FimAn-1
Consider B1, for which the binding result in data set [1], in data set [2], in data set [3], in data set [4] and in data set [5] was “binds” each time.
In the case of B2, the binding result in data set [1] is given as “binds”.
The same measure, in the same setting: then B3, with “binds”.
As for B4, the binding result in data set [1], in data set [3] and in data set [5] was “binds” in each case.
